The target of the data set is T1, Elk-1 (human, UniProt P19419 1-428).
T1 sequence: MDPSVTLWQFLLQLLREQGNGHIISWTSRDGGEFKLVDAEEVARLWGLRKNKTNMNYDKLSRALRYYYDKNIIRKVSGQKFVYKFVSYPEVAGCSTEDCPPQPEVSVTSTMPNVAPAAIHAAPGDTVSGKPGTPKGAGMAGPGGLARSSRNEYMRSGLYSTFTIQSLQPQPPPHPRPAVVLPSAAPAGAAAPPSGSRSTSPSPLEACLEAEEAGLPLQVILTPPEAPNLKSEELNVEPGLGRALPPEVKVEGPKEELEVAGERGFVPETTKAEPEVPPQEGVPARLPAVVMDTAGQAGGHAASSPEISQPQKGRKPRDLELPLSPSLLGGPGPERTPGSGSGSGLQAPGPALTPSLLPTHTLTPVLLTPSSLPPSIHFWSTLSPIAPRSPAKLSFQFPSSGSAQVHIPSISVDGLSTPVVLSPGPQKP
Kind of data set: EMSA; 1 ug Elk-1, 10 mM MgCl2, no poly(dI-dC); 50 mM HEPES pH 7.5, 10 mM MgCl2, 5% glycerol, 1 mM DTT, 0.3% BSA, 1 mM EDTA; 1 h on ice; 6% gel (HEPES buffer pH 6.3), no poly(dI-dC). Conditions: protein: commercial; blunt. In general terms: Mobility shift assays separate free from complexed probe on a gel.

B1: GRIN2B A allele (rs3764030 A) (dsDNA)
DNA 1: CATCTCCGGGGAACACGCGAA
DNA 2: TTCGCGTGTTCCCCGGAGATG
For B1, the binding result is recorded as “binds”.

The record behind these values is paper PMC5425128, “Functional human GRIN2B promoter polymorphism and variation of mental processing speed in older adults”.
